This note sets out measurements from article PMC10937111, “Structural basis for intra- and intermolecular interactions on RAD9 subunit of 9-1-1 checkpoint clamp implies functional 9-1-1 regulation by RHINO” (The Journal of Biological Chemistry, 2024).

Where a chain is given by its changes, count along the chain named. Numbers in names are those of the source.

First the molecules themselves.
T1: recombinant human 9-1-1 ring for crystallization (RAD9 residues 1-270, His-HUS1, RAD1 F64A/M256A/F266A) (human, UniProt Q99638 1-270; O60671 1-282; O60921 2-280, F64A | M256A | F266A)
T1 construct: C-terminal truncated RAD9, human, residues 1-270; RAD1, human, with the triple substitutions F64A/M256A/F266A; HUS1, human; source: E. coli BL21(DE3), co-expressed, purified (HiTrap Heparin, HiTrap Q, HiLoad Superdex200); copies: + +
T1 sequence 1: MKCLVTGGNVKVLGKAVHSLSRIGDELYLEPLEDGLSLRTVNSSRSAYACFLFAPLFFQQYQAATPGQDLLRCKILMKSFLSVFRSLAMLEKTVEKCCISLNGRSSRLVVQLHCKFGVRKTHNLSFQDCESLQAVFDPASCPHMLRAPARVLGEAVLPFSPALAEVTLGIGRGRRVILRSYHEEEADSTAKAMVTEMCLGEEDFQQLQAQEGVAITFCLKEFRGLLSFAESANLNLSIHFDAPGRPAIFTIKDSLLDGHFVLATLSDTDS
T1 sequence 2: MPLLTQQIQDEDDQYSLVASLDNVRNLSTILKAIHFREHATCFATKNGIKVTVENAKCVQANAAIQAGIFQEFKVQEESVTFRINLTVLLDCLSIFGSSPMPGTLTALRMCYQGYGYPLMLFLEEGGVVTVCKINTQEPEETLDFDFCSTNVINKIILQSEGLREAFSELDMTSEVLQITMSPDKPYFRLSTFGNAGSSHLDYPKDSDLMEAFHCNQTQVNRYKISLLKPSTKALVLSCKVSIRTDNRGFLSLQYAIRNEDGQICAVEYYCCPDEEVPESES
T1 sequence 3: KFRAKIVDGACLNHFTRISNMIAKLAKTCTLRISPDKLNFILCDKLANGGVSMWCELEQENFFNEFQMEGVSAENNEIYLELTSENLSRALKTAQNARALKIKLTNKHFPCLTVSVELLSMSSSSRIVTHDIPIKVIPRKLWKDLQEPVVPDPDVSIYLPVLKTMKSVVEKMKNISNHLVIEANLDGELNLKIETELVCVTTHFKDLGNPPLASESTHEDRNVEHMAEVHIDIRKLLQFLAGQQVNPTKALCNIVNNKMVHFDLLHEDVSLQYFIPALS

T2: FLAG-tagged 9^ΔC-1-1 (9-1-1 ring), wild type (human, UniProt Q99638 1-272; O60671 1-282; O60921 1-280)
T2 construct: RAD9 with the C-tail truncated (RAD9^ΔC), human, residues 1-272, from pFastBac1-FLAG-RAD9^ΔC; RAD1 subunit of 9-1-1; HUS1 subunit of 9-1-1; also called 9^ΔC-1-1 (W); purified 9^ΔC-1-1; copies: + +
T2 sequence (looked up) 1: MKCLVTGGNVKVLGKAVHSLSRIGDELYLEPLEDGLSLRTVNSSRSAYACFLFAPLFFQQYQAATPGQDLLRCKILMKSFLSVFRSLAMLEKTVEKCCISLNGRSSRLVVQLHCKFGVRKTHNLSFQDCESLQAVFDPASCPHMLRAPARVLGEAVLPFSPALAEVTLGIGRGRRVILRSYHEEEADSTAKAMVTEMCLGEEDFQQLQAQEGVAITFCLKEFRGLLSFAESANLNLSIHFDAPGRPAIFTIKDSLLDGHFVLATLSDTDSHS
T2 sequence (looked up) 2: T1 sequence 2 with A64F, A256M, A266F
T2 sequence (looked up) 3: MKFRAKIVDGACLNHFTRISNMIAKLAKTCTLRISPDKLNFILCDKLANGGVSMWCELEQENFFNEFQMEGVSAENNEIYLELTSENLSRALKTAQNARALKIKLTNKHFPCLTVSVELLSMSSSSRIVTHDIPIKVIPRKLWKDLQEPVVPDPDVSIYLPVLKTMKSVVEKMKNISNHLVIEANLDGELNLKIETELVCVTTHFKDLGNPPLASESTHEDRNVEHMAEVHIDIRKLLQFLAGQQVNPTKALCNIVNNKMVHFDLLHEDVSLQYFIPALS

B1: human RHINO peptide (88-TSKFPHLTFESP-99) (peptide)
peptide: TSKFPHLTFESP
notes: also called RHINO (residues 88-99); source: synthetic peptide (TORAY Research Center, Inc)
B2: GST-RAD9C15 F361A (peptide, UniProt Q99638 356-370, looked up)
chain: PPPKKARSLFFGSIL
notes: RAD9, human, residues 356-370 of the C-tail, F361A; source: E. coli Rosetta 2(DE3)pLysS, from cell lysate immobilised on Glutathione-Sepharose 4B beads and washed
B3: GST-RAD9C15 F365A (peptide, UniProt Q99638 356-370, looked up)
chain: PPPKKFRSLAFGSIL
notes: RAD9, human, residues 356-370 of the C-tail, F365A; source: E. coli Rosetta 2(DE3)pLysS, from cell lysate immobilised on Glutathione-Sepharose 4B beads and washed
B4: GST-tagged RAD9 (residues 356-370) (GST-RAD9C15), wild type (peptide, UniProt Q99638 356-370, looked up)
chain: PPPKKFRSLFFGSIL
notes: RAD9, human, residues 356-370 of the C-tail; source: E. coli Rosetta 2(DE3)pLysS, from cell lysate immobilised on Glutathione-Sepharose 4B beads and washed
B5: GST-p21CT FY (F150A/Y151A) (domain or fragment, human, UniProt P38936 87-164, looked up)
chain: DELGGGRRPGTSPALLQGTAEEDHVDLSLSCTLVPRSGEQAEGSPGGPGDSQGRKRRQTSMTDAAHSKRRLIFSKRKP
notes: p21, C-terminal region, residues 87-164, F150A/Y151A in the PIP-box; also called p21CT variant with the F150A/Y151A double substitution in the PIP-box; source: E. coli Rosetta 2(DE3)pLysS, from cell lysate immobilised on Glutathione-Sepharose 4B beads and washed
B6: GST-tagged p21 C-terminal region (residues 87-164) (GST-p21CT), wild type (domain or fragment, human, UniProt P38936 87-164, looked up)
chain: B5 chain with A64F, A65Y
notes: p21, C-terminal region carrying the PIP-box, residues 87-164; also called p21 (W); source: E. coli Rosetta 2(DE3)pLysS, from cell lysate immobilised on Glutathione-Sepharose 4B beads and washed

The target of one assay is T1, recombinant human 9-1-1 ring for …. Briefly: crystal structure; 0.13 mM 9-1-1 ring incubated with about 10-fold molar excess of the RHINO peptide at 277 K overnight; vapor diffusion, 0.2 M potassium iodine, 14% PEG 3350, 293 K; 2.81 Å. The following applies: both partners purified.
As for B1, the binding result is “binds”.

The next assay has as its target T2, FLAG-tagged 9^ΔC-1-1 (9-1-1 ring), wild …. Briefly: pull-down; GST or GST-fusion proteins from E. coli lysate immobilised on Glutathione-Sepharose 4B beads and washed four times; incubated with purified PCNA, FLAG-tagged 9^ΔC-1-1 (W) or its LVF mutant for 2 h at 4 °C in 25 μl of buffer H (25 mM HEPES-NaOH pH 7.8, 150 mM NaCl, 1 mM EDTA, 10% glycerol, 0.01% NP-40); immunoblotting with anti-RAD1 or anti-PCNA antibody. As to conditions: both partners purified. On the technique in general: Immunoblotting shows a protein as a band on a membrane.
Regarding B2, the binding result is “binds”. B3: the binding result is “binds”. Same read-out and setting: the value for B4 was “binds”; that for B5 was “binds”. As to B6, the binding result was “binds”.
